Target: EccD5 (Mycobacterium xenopi ESX-5 type VII secretion system) (Mycobacterium xenopi)
Test: cryo-EM structure; purified ESX-5 complex (void peak fraction) in 20 mM tris (pH 8), 150 mM NaCl; C6 global map 3.4 Å and locally refined map of the cytosolic part 3.0 Å; de novo atomic model of the transmembrane and membrane-adjacent cytoplasmic regions

In the case of “EccD5 (Mycobacterium xenopi ESX-5 type VII secretion system) (natural protein)”, the stoichiometry N was 2.
